# In patent US20190225662A1 (VIB VZW, published 2019):
# B1: ExD-AcD fragment of APP695 (without Fc) (ligand)
# chain: SVDSADAEEDDSDVWWGGADTDYADGGEDKVVEVAEEEEVADVEEEEADDDEDVEDGDEVEEEAEEPYEEATERTTSTATTTTTTTESVEEVVRVPTTAASTPD
# notes: also called APP695 ExD-AcD fragment; sAPPα ExD-AcD
# B2: sAPPα (Fc cleaved) (ligand)
# chain: LEVPTDGNAGLLAEPQIAMFCGKLNMHMNVQNGKWESDPSGTKTCIGTKEGILQYCQEVYPELQITNVVEANQPVTIQNWCKRGRKQCKTHTHIVIPYRCLVGEFVSDALLVPDKCKFLHQERMDVCETHLHWHTVAKETCSEKSTNLHDYGMLLPCGIDKFRGVEFVCCPLAEESDSVDSADAEEDDSDVWWGGADTDYADGGEDKVVEVAEEEEVADVEEEEADDDEDVEDGDEVEEEAEEPYEEATERTTSTATTTTTTTESVEEVVRVPTTAASTPDAVDKYLETPGDENEHAHFQKAKERLEAKHRERMSQVMREWEEAERQAKNLPKADKKAVIQHFQEKVESLEQEAANERQQLVETHMARVEAMLNDRRRLALENYITALQAVPPRPHHVFNMLKKYVRAEQKDRQHTLKHFEHVRMVDPKKAAQIRSQVMTHLRVIYERMNQSLSLLYNVPAVAEEIQDEVDELLQKEQNYSDDVLANMISEPRISYGNDALMPSLTETKTTVELLPVNGEFSLDDLQPWHPFGVDSVPANTENEVEPVDARPAADRGLTTRPGSGLTNIKTEEISEVKMDAEFGHDSGFEVRHQK
# notes: Made as an Fc fusion in HEK293 cells; also called soluble amyloid precursor protein α; purified sAPPα
# B3: Sushi domain 1 of the GABAB1a receptor, purified (receptor)
# chain: TSEGCQIIHPPWEGGIRYRGLTRDQVKAINFLPVDYEIEYVCRGEREVVGPKVRKCLANGSWTDMDTPSRCV
# notes: also called Sushi 1; sushi1
# How the values were obtained:
# [1] = target: B3; assay: ITC of the synthetic peptide … (211-220) with purified sushi 1
# Procedure: (§1) All ITC experiments were carried out on a MicroCal iTC200 system. For ITC experiments involving APP constructs expressed in HEK293 cells, the purified GABABR1a-Sushi1 domain, sAPPα, CuBDAcD, AcD and CuBD constructs were buffer-exchanged by size exclusion chromatography in 20 mM Na-HEPES pH 7.0, 150 mM NaCl supplemented with 5 mM CaCl2. Concentrated samples were diluted and degassed before the experiment at the concentrations reported in the Fig. legends. sAPP fragments (all of them at 30 μM) were placed in the MicroCal sample cell and matching buffer was placed in the reference cell. Sushi1 (300 μM) was in the syringe and was injected into the cell in a series of 1 μL injections at 25° C. All the datasets were subtracted with a reference data consisting of serial injections of Sushi 1 in the cell, containing buffer only under the same conditions. For ITC experiments involving synthetic APP peptides, the Sushi-1 protein was dialysed overnight to PBS buffer. The 17-mer peptide was resuspended in H2O:acetonitrile (5:1) at a stock concentration of 3 mM, and diluted in PBS to 300 uM. In order to avoid buffer-buffer mismatches, the same amount of H2O:acetonitrile mixture was also added when diluting the protein to a 30 uM concentration. The 9-mer peptide was resuspended in PBS. Titrations comprised 26×1.5 μL injections of peptide into the protein, with 90 s intervals. […]
# [2] = target: B3; assay: ITC, sushi1 (300 µM) injected into ExD-AcD (30 µM); N is the fitted stoichiometry on the Molar Ratio axis
# Procedure: as §1
# [3] = target: B3; assay: ITC with purified sushi 1
# Procedure: as §1
# [4] = target: B3; assay: ITC, sushi1 (300 µM) injected into sAPPα (30 µM); N is the fitted stoichiometry on the Molar Ratio axis
# Procedure: as §1
# [5] = target: B1; assay: ITC, sushi1 (300 µM) injected into ExD-AcD (30 µM)
# Procedure: as §1
# sAPPα (Fc cleaved) = target: B2; assay: ITC, Sushi1 (300 µM) injected into sAPPα (30 µM), 25° C.
# Procedure: as §1
# [6] = target: B3; assay: ITC of the synthetic peptide with purified sushi 1 (peptide injected into the protein); N is the fitted stoichiometry
# Procedure: as §1
# [7] = target: B3; assay: ITC, peptide (300 uM) injected into Sushi-1 protein (30 uM), PBS; 17mer peptide, APP695 204-220
# Procedure: as §1
binder,measurement,setting,value
"GGADTDYADG [synthetic peptide, APP695 residues 211-220]",binding result,[1],no binding
B1,N,[2],1.16
same,molar ratio,[3],~1
B2,N,[4],1.12
B3,Kd,[5],621 nM
same,Kd,sAPPα (Fc cleaved),431 nM
"DDSDVWWGG (also called 204-212AA) [synthetic 9mer peptide, APP695 residues 204-212]",N,[6],0.96
"DDSDVWWGGADTDYADG (also called 17AA stretch) [synthetic 17mer peptide, APP695 204-220AA]",Kd,[7],810 nM
same,N,[6],0.72
